Measurements published in the supplement of paper PMC7125110.
± gives the standard error. Variants at the floor of the assay were thinned out.

B1: glmS ribozyme (parent)
chain: AUAAAAGCGCCAGAACUACAGAAAUGUAGUUGACGAGGAGGAGGUUUAUCGAAUUUUCGGCGGAUGCCUCCAAA

What was measured:
Conditions in all cases: with glucosamine-6-phosphate
[1] = variants of: B1; experiment: self-cleavage kobs at 40 uM GlcN6P; higher = faster cleavage; RNA array
Outline: (§1)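 The measurements used barcoded ribozyme variants on sequenced MiSeq chips, transcribed in situ by E. coli RNA polymerase and tracked at 37 °C with a hybridised Cy3 probe. Glucosamine-6-phosphate, 40 μM to 10 mM in HEPES/KCl/Mg(OAc)2 buffer, was flowed in while tiles were imaged over ~14 h. Baseline-normalised signals, also normalised to non-cleaving reference variants, gave per-tile medians that were fit to one- or two-exponential decays for kobs. kcat and KM resulted from weighted Michaelis–Menten fits across concentrations.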

[2] = variants of: B1; experiment: self-cleavage kobs at 640 uM GlcN6P; higher = faster cleavage; RNA array
Outline: as §1

[3] = variants of: B1; experiment: self-cleavage kobs at 2500 uM GlcN6P; higher = faster cleavage; RNA array
Outline: as §1

[4] = variants of: B1; experiment: self-cleavage kobs at 10000 uM GlcN6P; higher = faster cleavage; RNA array
Outline: as §1

[5] = variants of: B1; experiment: self-cleavage kobs at 160 uM GlcN6P; higher = faster cleavage; RNA array
Outline: as §1

| Variant | self-cleavage kobs at 40 uM GlcN6P [1] | self-cleavage kobs at 640 uM GlcN6P [2] | self-cleavage kobs at 2500 uM GlcN6P [3] | self-cleavage kobs at 10000 uM GlcN6P [4] | self-cleavage kobs at 160 uM GlcN6P [5] |
| --- | --- | --- | --- | --- | --- |
| AUAAAAGCGCCAGCACUACAGAAAUGUAGUUGACGAGGAGGCGGUUUAUCGAAUUUUCGGCGGAUGCCUCCAAA [A14C A42C] | < 1e-05 s⁻¹ | < 1e-05 s⁻¹ | < 1e-05 s⁻¹ | – | – |
| AUAAAACGGCCAGAACUACAGAAAUGUAGUUGACGAGGAGGAGGUUUAUGGAAUAUUCGGCGGAUGCCUCCAAA [G7C C8G C50G U55A] | 7.03e-05 ± 2.9e-05 s⁻¹ | – | – | – | – |
| AUAAACGCGCCAGAUCUACAGAAAUGUAGUUGUCGAGGAGGAGGUUUAUCGAAUUUUCGGCGGAUGCCGCCAAA [A6C A15U A33U U69G] | < 1e-05 s⁻¹ | – | – | – | – |
| AUAAAAGCGGCAGAACUACAGAAAUGUAGUCGACUAGGAGGAGGUUUAUCGAAUUUUCGGCGGAUGCCUCCAAA [C10G U31C G35U] | < 1e-05 s⁻¹ | – | – | < 1e-05 s⁻¹ | – |
| AUAAAAGCGCCCGAACUACAGAAAUGUAGAUGACGAGCAGGAGGUUUAUCGAAUUUUCGGUGGAUGCCUCCAAA [A12C U30A G38C C61U] | < 1e-05 s⁻¹ | – | < 1e-05 s⁻¹ | – | – |
| AUAAAAGCUCCAGAACUACAGAAAUGUAGUUGACGAGGAGGAGGUUUAUCGAAUUUUCGUCGGAUGCCUCCAAA [G9U G60U] | < 1e-05 s⁻¹ | < 1e-05 s⁻¹ | < 1e-05 s⁻¹ | – | – |
| AUAAAAGCGCCAGAACUACAGAAAUGUAGUUGACGAGGAGGAGGUCUAUAGAAUUUUUGGCCGAUGCCUCCAAA [U46C C50A C58U G62C] | < 1e-05 s⁻¹ | – | – | – | – |
| AUAAAAUCGCCAGAACUACAGAAAUGUAGUUGACAAGGACGACGUUUAUCGAAUUUUGGGCGGAUGCCUCCAAA [G7U G35A G40C G43C C58G] | < 1e-05 s⁻¹ | – | – | – | – |
| AUAAAAACGCCGGAACUACAGAAAUGUAGCUGACGAGGAGGAGGUUUAACGAAUUUUCGGCGGAUGCCUCUAAA [G7A A12G U30C U49A C71U] | < 1e-05 s⁻¹ | – | – | – | – |
| AUAAAAGCGCCAGAACUACAGAAAUGUAGUUGACGAGGGGGAGGUUUAUCCAAUUUUCGGCCGAUGCCUCCAAA [A39G G51C G62C] | < 1e-05 s⁻¹ | – | – | < 1e-05 s⁻¹ | – |
| AUAAAAGCGGCAGAACUACAGAAAUGUAGUUGACGAGGAGGAGGUUUAGCGAAUUUUCGCCGGAUGCCUCCAAA [C10G U49G G60C] | < 1e-05 s⁻¹ | < 1e-05 s⁻¹ | – | – | – |
| AUAAAAGCGCGAGAACUACAGAAAUGUAGUUGACGAGGAGGGGGUUUAUCGAAUUUUCGGCGGAUGCCUCCAAA [C11G A42G] | < 1e-05 s⁻¹ | < 1e-05 s⁻¹ | – | – | < 1e-05 s⁻¹ |
| AUAAAAGCGCCAGAACUACAGAAAUGUAAUUGACGAGGAGGAGGUUUGGCGAAUUUUCGGCCGAUGCCUCCAAA [G29A A48G U49G G62C] | < 1e-05 s⁻¹ | – | < 1e-05 s⁻¹ | – | < 1e-05 s⁻¹ |
| AUAAAAGGGCCAGAACUACAGAAAUGUAGUCGACGUGGAGGAGGUUUAUCGAAUUUACGGCGGAUGCCUCCAAA [C8G U31C A36U U57A] | < 1e-05 s⁻¹ | – | < 1e-05 s⁻¹ | – | – |
| AUAAAAGCGCCACAACUACAGAAAUGUAGUUGACCAGGUGGAGGUUUAUCGAAUUUUCGGCGGAUGCCUCCAAA [G13C G35C A39U] | < 1e-05 s⁻¹ | – | – | – | – |
| AUAAAAGCGACAGAACUACAGAAAUGUAGUUGACGAGGAGGAGGUUUAUGGAAUUUUCGGCGGAUGCCUCCAAA [C10A C50G] | 7.92e-05 ± 1.7e-05 s⁻¹ | 0.000189 ± 4.1e-05 s⁻¹ | 0.000174 ± 3.5e-05 s⁻¹ | 6.81e-05 ± 1.2e-05 s⁻¹ | 0.000235 ± 5.6e-05 s⁻¹ |
| AUAAAAGCGCCAGAACUACAGAAAUGUAGUUGACGGGGAGGAGUUUUAUCGAAUUUUCGGCGGAUGCCUCCAAA [A36G G44U] | < 1e-05 s⁻¹ | < 1e-05 s⁻¹ | – | < 1e-05 s⁻¹ | < 1e-05 s⁻¹ |
